In patent US6896884B2, “Human chitinase, its recombinant production, its use for decomposing chitin, its use in therapy or prophylaxis against infection diseases” (Universiteit va Amsterdam, priority 1995, dated 2005):

Tests used:
[1] = hydrolysis of 4-methylumbelliferyl-chitobioside versus 4-methylumbelliferyl-chitotrioside; type: biochemical; settings: 4-methylumbelliferyl substrates
From the text: Purified 50 kDa and 39 kDa tissue chitotriosidases, and 50 kDa and 39 kDa chitozymes produced by recombinant DNA technology, are able to hydrolyse 4-methylumbelliferyl-chitotrioside and 4-methylumbelliferyl-chitobioside, the ratio of chitobioside activity to chitotrioside activity being about 0.7. Furthermore, p-nitrophenyl-chitotrioside and p-nitrophenyl-chitobioside are also efficiently hydrolyzed.

[2] = chitin azure degradation (release of soluble azure at 550 nm); type: biochemical; settings: chitin azure 10 mg/ml, citrate/phosphate buffer pH 5.2; control chitinase from Serratia marcescens
Procedure: Chitin azure (Sigma) suspended in citrate/phosphate buffer (pH 5.2) at a final concentration of 10 mg/ml was used to monitor chitinase activity. Chitin degradation was detected spectrophotometrically at 550 nm by determination of release of soluble azure (18). Chitinase from Serratia marcescens (Sigma) was used as control. […] See for example ref.18.

[3] = test system: cell wall suspension of Micrococcus lysodeikticus; test: lysozyme activity towards bacterial cell wall suspension; type: biochemical
[4] = type: in vitro ADME
Procedure: Production of the chitozymes via conventional technology in insect cells, plant cells, or vertebrate cells should be possible. Finally, transgenic animals could be envisioned as producers of large quantities of chitozymes in their milk for the applications described above. […] Successful proteolytic cleavage is only accomplished after denaturation of the enzyme, e.g. after heating in the presence of sodium dodecylsulphate. […] In analogy, chitotriosidase is stable at 37° C. in macrophage-conditioned medium that contains large quantities of various other secreted lytic enzymes.

[5] = type: physicochemical
Mucor mucedo = test: fungicidal effect on hyphal growth; type: cell-based; settings: for effect on hyphal growth, microscopical analysis: enzyme solution in 0.15 M NaCl pipetted on hyphal tips
Procedure: To test whether human chitotriosidase can exert an antifungal action, a chitinous fungus (Mucor mucedo) was grown on plates (containing malt extract, peptone, glucose and agar) under a Cellophane membrane in order to keep the hyphae flat against the agar surface (see ref.16). Individual sectors were cut out and mounted on microscope slides. Purified chitozyme 50 and chitozyme 39 were dialysed against 0.15 M sodium chloride. Samples of enzyme-containing solutions, and 0.15 M NaCl were pipetted on the hyphal tips. […] Application of saline had no effect. Negative effects on hyphal growth were detectable using chitozyme solutions with a concentration of enzyme as little as 0.005 mg/ml.

a variety of proteases = type: in vitro ADME
Procedure: Successful proteolytic cleavage is only accomplished after denaturation of the enzyme, e.g. after heating in the presence of sodium dodecylsulphate. […] In analogy, chitotriosidase is stable at 37° C. in macrophage-conditioned medium that contains large quantities of various other secreted lytic enzymes.

[6] = rat, in vivo
From the text: A prerequisite for the intravenous application of the chitinase is insight in its clearance. In the blood stream the most predominant isozyme is the 50 kDa protein. In tissue predominantly a 39 kDa isozyme is encountered. This appears to be formed by uptake of 50 kDa protein followed by proteolytic cleavage to a 39 kDa form that is remarkably stable in the lysosomal environment. […] Clearance is not a very rapid process as monitored by the disappearance of activity of human chitotriosidase in the blood stream of intravenously injected rats, the half life being about one hour. Only minor amounts of chitotriosidase are daily excreted into the urine. It is conceivable that some enzyme is efficiently recaptured by proximal tube epithelial cells since kidney is found to be extremely rich in ‘lysosomally processed’ 39 kDa enzyme.

Substance	ratio of chitobioside activity to chitotrioside activity [1]	stability against a variety of proteases (a variety of proteases)	clearance from the circulation [6]	effect on hyphal growth, microscopical analysis (Mucor mucedo)	further results
50 kDa tissue chitotriosidase: 50 kDa chitotriosidase purified from Gaucher disease spleen	about 0.7				
chitotriosidase: human chitinase produced by macrophages, named chitotriosidase; isoform not specified at the place					chitinase activity, related to hydrolysis of 4-methyl-umbelliferyl-chitotrioside [2]: comparable to that of the bacterial chitinase; activity towards Micrococcus lysodeikticus cell wall suspension (lysozyme activity) [3]: No significant activity; loss of enzyme activity on prolonged incubation [4]: does not result in detectable loss of enzyme activity; stability in macrophage-conditioned medium [4]: stable; enzyme activity after spotting on filter paper ([5]; storage for several days at room temperature): enzyme activity is still recovered; loss of enzyme activity upon storage and freeze-thaw ([5]; −20 or −70° C., repeated cycles of freezing and thawing): No loss of enzyme activity; effect on fungal growth (Mucor mucedo; Mucor species): inhibited growth
chitozyme 39: recombinant human chitotriosidase isozyme of 39 kDa, encoded by chi.39 cDNA (SEQ ID NO:6), produced by transfected COS cells	about 0.7	extremely stable	not immediately cleared	immediate cessation of hyphal growth	
chitozyme 50: recombinant human chitotriosidase isozyme of 50 kDa, encoded by chi.50 cDNA (SEQ ID NO:4), produced by transfected COS cells	about 0.7	extremely stable	not immediately cleared	immediate cessation of hyphal growth	half life in the circulation, compared between isozymes [6]: somewhat longer than that of the 39 kDa enzyme
chitozyme: recombinant chitotriosidase, isozyme not specified at the place					stability when added to cow milk [4]: completely stable
tissue chitotriosidase: chitotriosidase purified from Gaucher disease spleen, isoform not specified			not immediately cleared		
